In article doi:10.1101/388728:

How the values were obtained:
[1] = target: His6-TRX-PfPPR1 (Plasmodium falciparum apicoplast pentatricopeptide repeat protein 1, with His6-TRX tag) (Plasmodium falciparum); experiment: SEC
[2] = target: PfPPR1 minus the His6-TRX tag (tag cleaved by HRV 3C protease) (Plasmodium falciparum); experiment: AUC

His6-TRX-PfPPR1 (Plasmodium falciparum apicoplast pentatricopeptide repeat protein 1, with His6-TRX tag) (natural protein)
stoichiometry N [1]: 2

PfPPR1 minus the His6-TRX tag (tag cleaved by HRV 3C protease) (natural protein)
stoichiometry N [2]: 2
